Reference: publication PMC1977871

biological target: 160 kd cell surface receptor (human (endogenous in MDA.MB.231 and 184A1)); assay: radioligand binding; competition: 5 nM 125I-labelled TAA.62(T) on MDA.MB.231 monolayers with or without unlabelled peptide (cells preincubated with the growth factors), 2 h at 4 C, EBSS with 20 mM Hepes pH 7.4 and 1% BSA; specific binding as % of control

In order of rising specific binding of 125I-TAA.62(T) (% of control):
1. transforming growth factor-beta (ligand)  95 % of control
2. insulin-like growth factor (from UniProt P05019 49-118) (ligand)  97 % of control
3. transforming growth factor-alpha (from UniProt P01135 40-89) (ligand)  98 % of control
4. epidermal growth factor (from UniProt P01133 971-1023) (ligand)  102 % of control
